# Experiments:
# [1] = target: PlpD V113C with an N-terminal TwinStrepII tag (P. aeruginosa (strain PA14)) (UniProt Q9HYQ6); experiment: cross-linking; in vivo disulfide-bond formation: cysteine mutants expressed in P. aeruginosa SEH88; intact cells in ice-cold PBS with 0.2 mM 4-DPS (or ethanol, mock) for 30 min; TCA precipitation, SDS-PAGE, immunoblot with the anti-PlpD C-terminal peptide antiserum
# [2] = target: PlpD M249C with an N-terminal TwinStrepII tag (P. aeruginosa (strain PA14)) (UniProt Q9HYQ6); experiment: cross-linking; in vivo disulfide-bond formation, time course: cells in ice-cold PBS with 0.2 mM 4-DPS for 0, 2, 5, 15, 30, 60, 90 and 120 min; immunoblot with the anti-PlpD C-terminal peptide antiserum
# [3] = target: PlpD M249C with an N-terminal TwinStrepII tag (P. aeruginosa (strain PA14)) (UniProt Q9HYQ6); experiment: cross-linking; in vivo disulfide-bond formation: cysteine mutants expressed in P. aeruginosa SEH88; intact cells in ice-cold PBS with 0.2 mM 4-DPS (or ethanol, mock) for 30 min; TCA precipitation, SDS-PAGE, immunoblot with the anti-PlpD C-terminal peptide antiserum
# [4] = target: PlpD I117C with an N-terminal TwinStrepII tag (P. aeruginosa (strain PA14)) (UniProt Q9HYQ6); experiment: as above
# [5] = target: PlpD S118C with an N-terminal TwinStrepII tag (P. aeruginosa (strain PA14)) (UniProt Q9HYQ6); experiment: as above
# [6] = target: PlpD I532C with an N-terminal TwinStrepII tag (P. aeruginosa (strain PA14)) (UniProt Q9HYQ6); experiment: cross-linking; in vivo disulfide-bond formation, time course: cells in ice-cold PBS with 0.2 mM 4-DPS for 0, 2, 5, 15, 30, 60, 90 and 120 min; immunoblot with the anti-PlpD C-terminal peptide antiserum
# [7] = target: PlpD I532C with an N-terminal TwinStrepII tag (P. aeruginosa (strain PA14)) (UniProt Q9HYQ6); experiment: cross-linking; in vivo disulfide-bond formation: cysteine mutants expressed in P. aeruginosa SEH88; intact cells in ice-cold PBS with 0.2 mM 4-DPS (or ethanol, mock) for 30 min; TCA precipitation, SDS-PAGE, immunoblot with the anti-PlpD C-terminal peptide antiserum
substance,measurement,setting,value
PlpD V113C with an N-terminal TwinStrepII tag (from UniProt Q9HYQ6 1-728) (natural protein),percent intermolecular disulfide bond formation,[1],84%
PlpD M249C with an N-terminal TwinStrepII tag (from UniProt Q9HYQ6 1-728) (natural protein),"percent intermolecular disulfide bonding, plateau of the time course (60-90 min)",[2],91.5%
same,percent of PlpD in intermolecular disulfide-bonded form (30 min 4-DPS),[3],65%
same,stoichiometry N,[3],2
PlpD I117C with an N-terminal TwinStrepII tag (from UniProt Q9HYQ6 1-728) (natural protein),percent intermolecular disulfide bond formation,[4],84%
PlpD S118C with an N-terminal TwinStrepII tag (from UniProt Q9HYQ6 1-728) (natural protein),percent intermolecular disulfide bond formation,[5],84%
PlpD I532C with an N-terminal TwinStrepII tag (from UniProt Q9HYQ6 1-728) (natural protein),"percent intermolecular disulfide bonding, peak of the time course",[6],63%
same,percent of PlpD in intermolecular disulfide-bonded form (30 min 4-DPS),[7],65%
same,stoichiometry N,[7],2

# — article PMC11116518
